Results reported in patent US20120276009A1 (KATHOLIEKE UNIVERSITEIT LEUVEN, published 2012).

T1: T1.6: Tau5-20 (non-phosphorylated peptide) (human)
T1 construct: Non-phosphorylated counterpart of T1.5; also called Tau peptide
T1 peptide: RQEFEVMEDHAGTYGL

B1: ACI-35-2G5-Ab1 (antibody, IgG2b, V domains shown)
VH: QVQLKQSGAELVRPGASVKLSCKASGYTFTDYYINWVKQRPGQGLEWIARIYPGRGNIYYNEKFKGKATLTAEKSSSTAYMQLSSLTSEDSAVYFCARFWDVTYWGQGTLVTVSA
VL: DVLMTQTPLSLPVSLGDQASISCRSSQSIVHSNGNTYLEWFLQKPGQSPKLLIYKVSNRFSGVPDRFSGSGSGTDFTLKISRVEAEDLGVYYCFQGSHVPYTFGGGTKLEIK
notes: Mouse monoclonal from hybridoma A6-2G5-08; also called A6-2G5-08
B2: ACI-33-6C10-Ab2 (antibody, IgG3, V domains shown)
VH: EVQLVESGGGLVKPGGSLKLSCAPSGFTFSDYGMHWVRQAPEKGLEWVAYISSGSSTIYYGDTVKGRFTISRDNAKNTLFLQMTSLRSEDTAMYYCARRGQLRLRLFAYWGQGTLVTVSA
VL: DIVMTQSHKFMSTSVGDRVSITCKASQDVSTAVAWYQQKPGQSPKLLIYSASYRYTGVPDRFTGSGSGTDFTFTISSVQAEDLAVYYCQQHYTTPLTFGAGTKLELK
notes: Mouse monoclonal from hybridoma 6C10E5E9C12 (DSM ACC3081); also called 6C10E5E9C12

Legend:
[1] = molecular target: T2, full-length (441 aa) human Tau protein (human, UniProt P10636 1-758); assay: ELISA, protein coated at 1 µg/mL
T2 construct: Non-phosphorylated recombinant protein bought from SignalChem; also called Full-length Tau; Tau40
T2 sequence (P10636 other isoform, or with tags, fused parts or gaps limits assumed): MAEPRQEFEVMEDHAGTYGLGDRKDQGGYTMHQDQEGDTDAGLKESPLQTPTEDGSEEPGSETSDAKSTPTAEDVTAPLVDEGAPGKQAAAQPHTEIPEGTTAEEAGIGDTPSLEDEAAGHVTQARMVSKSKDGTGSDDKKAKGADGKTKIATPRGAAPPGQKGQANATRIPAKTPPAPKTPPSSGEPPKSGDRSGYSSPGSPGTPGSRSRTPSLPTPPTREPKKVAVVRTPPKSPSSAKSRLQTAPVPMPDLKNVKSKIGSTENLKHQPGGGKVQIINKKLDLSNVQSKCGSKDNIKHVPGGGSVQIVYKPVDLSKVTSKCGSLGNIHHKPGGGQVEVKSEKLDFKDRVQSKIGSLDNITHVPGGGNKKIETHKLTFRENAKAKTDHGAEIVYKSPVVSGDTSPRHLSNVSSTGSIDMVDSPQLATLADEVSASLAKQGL

[2] = molecular target: T1, T1.6: Tau5-20 (non-phosphorylated …); assay: ELISA, peptide coated at 10 µg/mL

Binder | binding result [1] | binding result [2]
B1 | no binding (tested: 20 µg/mL) | –
B2 | – | no binding (tested: 20 µg/mL)
